The source of these data is patent US20230416410A1 (ZOETIS SERVICES, published 2023).

Where two headings read alike, the source gives them in different places.

Experiment [1] concerns the target T1, recombinant bovine FcgR2 (bovine, UniProt Q28110 43-225, limits assumed, biotin on the BAP tag (BirA)).
T1 construct: also called bFcgR2; bFcgRII
T1 sequence: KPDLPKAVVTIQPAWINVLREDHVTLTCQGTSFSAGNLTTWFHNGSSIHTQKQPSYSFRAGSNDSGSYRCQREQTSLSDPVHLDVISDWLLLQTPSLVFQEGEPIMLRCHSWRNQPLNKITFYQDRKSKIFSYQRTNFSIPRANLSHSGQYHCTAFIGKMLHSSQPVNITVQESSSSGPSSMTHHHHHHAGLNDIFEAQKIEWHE
The experiment is described as follows: SPR Biacore, biotinylated receptor on SA sensor, pH 7.4, 15 C. As for the experimental part:
(§1) A Biacore SPR binding assay was designed to test the affinity of bovine IgG subclasses to bFcgR1, bFcgR2 and bFcgR3. All reported KD's were measured by Biacore (Cytiva, Marlborough, MA, USA) using series S SA sensor. Biotinylated-bovine FcgR1, R2 and R3 were captured on the sensor surface using a modified SA capture method to reach the desired surface density. 10 mM HEPES, 150 mM NaCl, 3 mM EDTA, 0.05% v/v surfactant P20, pH7.4 buffer was used as the running and titration buffer. Various concentrations of bovine CTLA4-Fc fusions or mAbs were titrated and flowed over the receptor surface and affinities were determined using Biacore T200 Evaluation software (Cytiva, Marlborough, MA, USA) with 1:1 binding model. The method of double referencing has been applied where the reference flow cell was subtracted from the flow cell containing immobilized receptors and blank runs containing buffer only were subtracted out from all runs. Flow cells were regenerated using 10 mM Glycine pH1.5. Runs were performed at 15° C.
(§2) The ability to knock out binding to bovine Fc gamma receptors was evaluated by comparing SPR Biacore bFcgR affinity of bIgG1a and bIgG1b wildtype Fc to the bIgG1a and bIgG1b mutations, described above. All mutations made to bIgG1 are identical for the a and b allotypes. Biacore methods for bFcgR1, R2, and R3 were performed as described in Example 1.

The next experiment has as its target T2, recombinant bovine FcgR1 (bovine, biotin on the BAP tag (BirA)).
T2 construct: also called bFcgR1; bFcgRI
The experiment is described as above. Here is the method: as §1, §2

The next experiment has as its target T3, recombinant bovine FcgR3 (bovine, UniProt P79107 17-208, limits assumed, biotin on the BAP tag (BirA)).
T3 construct: also called bFcgR3; bFcgRIII
T3 sequence: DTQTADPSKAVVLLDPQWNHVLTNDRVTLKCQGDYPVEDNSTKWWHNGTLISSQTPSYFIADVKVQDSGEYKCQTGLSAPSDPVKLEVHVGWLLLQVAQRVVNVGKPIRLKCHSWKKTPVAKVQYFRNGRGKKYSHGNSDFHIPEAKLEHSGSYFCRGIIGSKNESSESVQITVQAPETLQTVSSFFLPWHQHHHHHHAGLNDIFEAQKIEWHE
The description is as above. As for the experimental part:
as §1, §2

Experiment [2] deals with T4, complement component C1q (in bovine complement preserved serum) (bovine, UniProt Q5E9E3 23-244; Q2KIV9 23-247). The experiment is described as follows: cell-based or functional assay.
T4 sequence (Q5E9E3 23-244, chain 1 of 2): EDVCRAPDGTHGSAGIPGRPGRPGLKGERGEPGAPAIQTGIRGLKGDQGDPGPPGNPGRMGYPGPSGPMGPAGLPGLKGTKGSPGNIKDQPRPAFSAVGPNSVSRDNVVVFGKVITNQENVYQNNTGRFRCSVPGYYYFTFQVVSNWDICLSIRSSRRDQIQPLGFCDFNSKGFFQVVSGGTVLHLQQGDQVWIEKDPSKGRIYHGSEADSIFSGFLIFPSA
T4 sequence (Q2KIV9 23-247, chain 2 of 2): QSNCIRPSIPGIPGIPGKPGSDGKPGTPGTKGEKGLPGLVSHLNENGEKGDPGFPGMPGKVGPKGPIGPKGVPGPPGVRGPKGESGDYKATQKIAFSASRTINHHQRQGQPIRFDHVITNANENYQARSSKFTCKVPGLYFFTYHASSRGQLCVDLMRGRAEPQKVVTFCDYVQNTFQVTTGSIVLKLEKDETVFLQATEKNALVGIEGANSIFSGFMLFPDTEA
In experiment [3] the target is T1, recombinant bovine FcgR2. The experiment is described as follows: SPR Biacore, biotinylated receptor on SA sensor, pH 7.4, 15 C. Here is the method:
as §1
Biacore methods for bFcgR1, R2, and R3 were performed as described in Examples above. […] Although the two allotypes have different KDs for bFcgR2 and bFcgR3, both wildtype allotypes do bind. All of the mutations, bIgG3Win, bIgG3WinSAS, bIgG3SAS and bIgG3SAP for both the a and b allotypes knocked down binding to bFcgR1, bFcgR2 and bFcgR3 to negligible affinities. Thus, for knocking out receptor binding, the two allotypes compare similarly.
The source holds these as a separate data set. For orientation: In SPR one partner is held on a chip, and binding of the other changes the refractive index at the surface.

Experiment [4] has as its target T4, complement component C1q (in bovine …). The experiment is described as follows: cell-based or functional assay. The source holds these as a separate data set.

B1: CTLA4 Fc bIgG1b (Fc fusion)
chain: DMHVAQPAVVLASSRGVASFVCEYGSSGNAAEVRVTVLRQAGSQMTEVCAATYTVEDELAFLDDSTCTGTSSGNKVNLTIQGLRAMDTGLYICKVELMYPPPYYVGMGNGTQIYVIDPEPCPDSDDPTCKPSPCDCCPPPELPGGPSVFIFPPKPKDTLTISGTPEVTCVVVDVGHDDPEVKFSWFVDDVEVNTATTKPREEQFNSTYRVVSALRIQHQDWTGGKEFKCKVHNEGLPAPIVRTISRTKGPAREPQVYVLAPPQEELSKSTVSLTCMVTSFYPDYIAVEWQRNGQPESEDKYGTTPPQLDADSSYFLYSKLRVDRNSWQEGDTYTCVVMHEALHNHYTQKSTSKSAGK
notes: No linker; also called bIgG1b wildtype; CTLA4 Fc bIgG1b wildtype
As usually defined, the Kd is the free concentration of one partner at which half of the binding sites on the other are occupied at equilibrium, for simple one-to-one binding. Regarding B1, the Kd was 2.48 nM with recombinant bovine FcgR2 [1], 0.463 nM in the experiment with recombinant bovine FcgR1 and 13.7 nM with recombinant bovine FcgR3. Further, in experiment [2], the “CDC EC50 Value” is 0.036 µg/mL.

B2: CTLA4 Fc bIgG1bWinSS (Fc fusion)
chain: DMHVAQPAVVLASSRGVASFVCEYGSSGNAAEVRVTVLRQAGSQMTEVCAATYTVEDELAFLDDSTCTGTSSGNKVNLTIQGLRAMDTGLYICKVELMYPPPYYVGMGNGTQIYVIDPEPCPDSDDPTCKPSPCDCCPPPEAAGAPSVFIFPPKPKDTLTISGTPEVTCVVVDVGHDDPEVKFSWFVDDVEVNTATTKPREEQFNSTYRVVSALRIQHQDWTGGKEFKCKVHNEGLPSSIVRTISRTKGPAREPQVYVLAPPQEELSKSTVSLTCMVTSFYPDYIAVEWQRNGQPESEDKYGTTPPQLDADSSYFLYSKLRVDRNSWQEGDTYTCVVMHEALHNHYTQKSTSKSAGK
notes: No linker
As to B2, the Kd with recombinant bovine FcgR1 came out at 70.4 nM.

B3: CTLA4 Fc bIgG1bWinSAS (Fc fusion)
chain: DMHVAQPAVVLASSRGVASFVCEYGSSGNAAEVRVTVLRQAGSQMTEVCAATYTVEDELAFLDDSTCTGTSSGNKVNLTIQGLRAMDTGLYICKVELMYPPPYYVGMGNGTQIYVIDPEPCPDSDDPTCKPSPCDCCPPPEAAGAPSVFIFPPKPKDTLTISGTPEVTCVVVDVGHDDPEVKFSWFVDDVEVNTATTKPREEQFNSTYRVVSALRIQHQDWTGGKEFKCKVHNEGLSASIVRTISRTKGPAREPQVYVLAPPQEELSKSTVSLTCMVTSFYPDYIAVEWQRNGQPESEDKYGTTPPQLDADSSYFLYSKLRVDRNSWQEGDTYTCVVMHEALHNHYTQKSTSKSAGK
notes: No linker
Take B3: in the experiment with recombinant bovine FcgR2 [1], the binding result was “no binding”.

B4: CTLA4 Fc bIgG1bSAP (Fc fusion)
chain: DMHVAQPAVVLASSRGVASFVCEYGSSGNAAEVRVTVLRQAGSQMTEVCAATYTVEDELAFLDDSTCTGTSSGNKVNLTIQGLRAMDTGLYICKVELMYPPPYYVGMGNGTQIYVIDPEPCPDSDDPTCKPSPCDCCPPPELPGGPSVFIFPPKPKDTLTISGTPEVTCVVVDVGHDDPEVKFSWFVDDVEVNTATTKPREEQFNSTYRVVSALRIQHQDWTGGKEFKCKVHNEGLSAPIVRTISRTKGPAREPQVYVLAPPQEELSKSTVSLTCMVTSFYPDYIAVEWQRNGQPESEDKYGTTPPQLDADSSYFLYSKLRVDRNSWQEGDTYTCVVMHEALHNHYTQKSTSKSAGK
notes: No linker
B4: the binding result with recombinant bovine FcgR2 [1] is recorded as “no binding”.

B5: CTLA4 Fc bIgG1bWin (Fc fusion)
chain: DMHVAQPAVVLASSRGVASFVCEYGSSGNAAEVRVTVLRQAGSQMTEVCAATYTVEDELAFLDDSTCTGTSSGNKVNLTIQGLRAMDTGLYICKVELMYPPPYYVGMGNGTQIYVIDPEPCPDSDDPTCKPSPCDCCPPPEAAGAPSVFIFPPKPKDTLTISGTPEVTCVVVDVGHDDPEVKFSWFVDDVEVNTATTKPREEQFNSTYRVVSALRIQHQDWTGGKEFKCKVHNEGLPAPIVRTISRTKGPAREPQVYVLAPPQEELSKSTVSLTCMVTSFYPDYIAVEWQRNGQPESEDKYGTTPPQLDADSSYFLYSKLRVDRNSWQEGDTYTCVVMHEALHNHYTQKSTSKSAGK
notes: No linker
In the case of B5, the Kd with recombinant bovine FcgR2 [1] stood at 3.24 nM; in the experiment with recombinant bovine FcgR1 it was 3.73 nM. Also, the “CDC EC50 Value” in experiment [2] turned out to be 0.015 µg/mL.

B6: CTLA4 Fc bIgG1bSAS (Fc fusion)
chain: DMHVAQPAVVLASSRGVASFVCEYGSSGNAAEVRVTVLRQAGSQMTEVCAATYTVEDELAFLDDSTCTGTSSGNKVNLTIQGLRAMDTGLYICKVELMYPPPYYVGMGNGTQIYVIDPEPCPDSDDPTCKPSPCDCCPPPELPGGPSVFIFPPKPKDTLTISGTPEVTCVVVDVGHDDPEVKFSWFVDDVEVNTATTKPREEQFNSTYRVVSALRIQHQDWTGGKEFKCKVHNEGLSASIVRTISRTKGPAREPQVYVLAPPQEELSKSTVSLTCMVTSFYPDYIAVEWQRNGQPESEDKYGTTPPQLDADSSYFLYSKLRVDRNSWQEGDTYTCVVMHEALHNHYTQKSTSKSAGK
notes: No linker
As to B6, the binding result with recombinant bovine FcgR2 [1] is on record as “no binding”.

B7: CTLA4 Fc bIgG3bSAP (Fc fusion)
chain: DMHVAQPAVVLASSRGVASFVCEYGSSGNAAEVRVTVLRQAGSQMTEVCAATYTVEDELAFLDDSTCTGTSSGNKVNLTIQGLRAMDTGLYICKVELMYPPPYYVGMGNGTQIYVIDPEPCPDSDTARRPVPTTPKTTIPPGKPTTQESEVEKTPCQCSKCPEPLGGLSVFIFPPKPKDTLTISGTPEVTCVVVDVGQDDPEVQFSWFVDDVEVHTARTKPREEQFNSTYRVVSALRIQHQDWLQGKEFKCKVNNKGLSAPIVRTISRTKGQAREPQVYVLAPPREELSKSTLSLTCLITGFYPEEIDVEWQRNGQPESEDKYHTTAPQLDADGSYFLYSRLRVNKSSWQEGDHYTCAVMHEALRNHYKEKSISRSPGK
notes: No linker
Turning to B7, the binding result with recombinant bovine FcgR2 [3] is “no binding”.

B8: CTLA4 Fc bIgG3bWinSAS (Fc fusion)
chain: DMHVAQPAVVLASSRGVASFVCEYGSSGNAAEVRVTVLRQAGSQMTEVCAATYTVEDELAFLDDSTCTGTSSGNKVNLTIQGLRAMDTGLYICKVELMYPPPYYVGMGNGTQIYVIDPEPCPDSDTARRPVPTTPKTTIPPGKPTTQESEVEKTPCQCSKCPEAAGALSVFIFPPKPKDTLTISGTPEVTCVVVDVGQDDPEVQFSWFVDDVEVHTARTKPREEQFNSTYRVVSALRIQHQDWLQGKEFKCKVNNKGLSASIVRTISRTKGQAREPQVYVLAPPREELSKSTLSLTCLITGFYPEEIDVEWQRNGQPESEDKYHTTAPQLDADGSYFLYSRLRVNKSSWQEGDHYTCAVMHEALRNHYKEKSISRSPGK
notes: No linker
Take B8: the binding result with recombinant bovine FcgR2 [3] is on record as “no binding”.

B9: CTLA4 Fc bIgG3bSAS (Fc fusion)
chain: DMHVAQPAVVLASSRGVASFVCEYGSSGNAAEVRVTVLRQAGSQMTEVCAATYTVEDELAFLDDSTCTGTSSGNKVNLTIQGLRAMDTGLYICKVELMYPPPYYVGMGNGTQIYVIDPEPCPDSDTARRPVPTTPKTTIPPGKPTTQESEVEKTPCQCSKCPEPLGGLSVFIFPPKPKDTLTISGTPEVTCVVVDVGQDDPEVQFSWFVDDVEVHTARTKPREEQFNSTYRVVSALRIQHQDWLQGKEFKCKVNNKGLSASIVRTISRTKGQAREPQVYVLAPPREELSKSTLSLTCLITGFYPEEIDVEWQRNGQPESEDKYHTTAPQLDADGSYFLYSRLRVNKSSWQEGDHYTCAVMHEALRNHYKEKSISRSPGK
notes: No linker
Consider B9, for which the binding result with recombinant bovine FcgR2 [3] is on record as “no binding”.

B10: CTLA4 Fc bIgG3bWin (Fc fusion)
chain: DMHVAQPAVVLASSRGVASFVCEYGSSGNAAEVRVTVLRQAGSQMTEVCAATYTVEDELAFLDDSTCTGTSSGNKVNLTIQGLRAMDTGLYICKVELMYPPPYYVGMGNGTQIYVIDPEPCPDSDTARRPVPTTPKTTIPPGKPTTQESEVEKTPCQCSKCPEAAGALSVFIFPPKPKDTLTISGTPEVTCVVVDVGQDDPEVQFSWFVDDVEVHTARTKPREEQFNSTYRVVSALRIQHQDWLQGKEFKCKVNNKGLPAPIVRTISRTKGQAREPQVYVLAPPREELSKSTLSLTCLITGFYPEEIDVEWQRNGQPESEDKYHTTAPQLDADGSYFLYSRLRVNKSSWQEGDHYTCAVMHEALRNHYKEKSISRSPGK
notes: No linker
Turning to B10, the binding result in the experiment with recombinant bovine FcgR2 [3] was “no binding”. Further, the “CDC EC50 Value” in experiment [4] amounted to 0.062 µg/mL.
